Read-outs that look alike come from different tables or passages of the source.
Columns and labels:
[1] = target: T1, 4H3595-AA; assay: two-hybrid library CCmax;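 also: natural log of median RNA to DNA barcode read ratio; higher means stronger binding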
T1 chain: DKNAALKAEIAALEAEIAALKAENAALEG

[2] = target: T2, 4H3629-AA; assay: two-hybrid library CCmax; settings: mean of both orientations;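 also: natural log of median RNA to DNA barcode read ratio; higher means stronger binding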
T2 chain: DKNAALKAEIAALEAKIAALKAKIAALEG

[3] = target: T3, 4H3782-AA; assay: two-hybrid library CCmax; settings: mean of both orientations;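 also: natural log of median RNA to DNA barcode read ratio; higher means stronger binding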
T3 chain: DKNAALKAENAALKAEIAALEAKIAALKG

[4] = target: T4, 4H380-AA; assay: two-hybrid library CCmax; settings: mean of both orientations;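 also: natural log of median RNA to DNA barcode read ratio; higher means stronger binding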
T4 chain: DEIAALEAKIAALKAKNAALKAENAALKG

[5] = target: T5, 4H3939-AA; assay: two-hybrid library CCmax; settings: mean of both orientations;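 also: natural log of median RNA to DNA barcode read ratio; higher means stronger binding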
T5 chain: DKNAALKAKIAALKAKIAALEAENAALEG

[6] = target: T6, 4H3969-AA; assay: two-hybrid library CCmax; settings: mean of both orientations;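 also: natural log of median RNA to DNA barcode read ratio; higher means stronger binding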
T6 chain: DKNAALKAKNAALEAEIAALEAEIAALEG

[7] = target: T7, 4H446-AA; assay: two-hybrid library CCmax; settings: mean of both orientations
T7 chain: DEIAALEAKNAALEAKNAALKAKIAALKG

[8] = target: T8, 4H464-AA; assay: two-hybrid library CCmax; settings: mean of both orientations
T8 chain: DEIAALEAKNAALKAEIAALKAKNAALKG

[9] = target: T9, 4H483-AA; assay: two-hybrid library CCmax; settings: mean of both orientations
T9 chain: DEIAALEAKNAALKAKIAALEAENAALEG

[10] = target: T10, 4H63-AA; assay: two-hybrid library CCmax; settings: mean of both orientations
T10 chain: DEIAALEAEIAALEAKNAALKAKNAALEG

[11] = target: T11, 4H687-bN; assay: two-hybrid library CCNG1
T11 chain: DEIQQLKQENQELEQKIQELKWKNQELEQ

[12] = target: T12, 4H717-bN; assay: two-hybrid library CCNG1
T12 chain: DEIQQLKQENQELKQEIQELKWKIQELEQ

[13] = target: T13, 4H72-bN; assay: two-hybrid library CCNG1
T13 chain: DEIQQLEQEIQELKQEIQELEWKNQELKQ

[14] = target: T14, 4H754-bN; assay: two-hybrid library CCNG1
T14 chain: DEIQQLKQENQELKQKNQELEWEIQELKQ

[15] = target: T15, 4H797-bN; assay: two-hybrid library CCNG1
T15 chain: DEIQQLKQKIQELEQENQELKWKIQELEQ

[16] = target: T16, 4H883-bN; assay: two-hybrid library CCNG1
T16 chain: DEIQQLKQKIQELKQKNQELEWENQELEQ

[17] = target: T17, 4H908-bN; assay: two-hybrid library CCNG1
T17 chain: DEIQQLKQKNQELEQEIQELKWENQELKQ

[18] = target: T18, 4H918-bN; assay: two-hybrid library CCNG1
T18 chain: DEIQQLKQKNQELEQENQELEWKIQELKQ

[19] = target: T19, 4H953-bN; assay: two-hybrid library CCNG1
T19 chain: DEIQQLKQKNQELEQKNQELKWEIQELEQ

[20] = target: T20, 4H967-bN; assay: two-hybrid library CCNG1
T20 chain: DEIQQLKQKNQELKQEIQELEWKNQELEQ

[21] = target: T21, 4H32-AA; assay: two-hybrid library CCmax
T21 chain: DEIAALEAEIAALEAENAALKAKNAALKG

[22] = target: T22, 4H3378-AA; assay: two-hybrid library CCmax
T22 chain: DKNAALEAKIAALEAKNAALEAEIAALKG

[23] = target: T23, 4H340-AA; assay: two-hybrid library CCmax; settings: mean of both orientations
T23 chain: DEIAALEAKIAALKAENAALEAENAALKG

[24] = target: T24, 4H3413-AA; assay: two-hybrid library CCmax; settings: mean of both orientations
T24 chain: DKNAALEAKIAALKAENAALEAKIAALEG

[25] = target: T25, 4H3588-AA; assay: two-hybrid library CCmax; settings: mean of both orientations
T25 chain: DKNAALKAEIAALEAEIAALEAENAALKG

[26] = target: T26, 4H3606-AA; assay: two-hybrid library CCmax; settings: mean of both orientations
T26 chain: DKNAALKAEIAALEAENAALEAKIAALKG

[27] = target: T27, 4H3631-AA; assay: two-hybrid library CCmax; settings: mean of both orientations
T27 chain: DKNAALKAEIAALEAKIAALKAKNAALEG

[28] = target: T28, 4H3697-AA; assay: two-hybrid library CCmax; settings: mean of both orientations
T28 chain: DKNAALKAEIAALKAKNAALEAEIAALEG

[29] = target: T29, 4H3718-AA; assay: two-hybrid library CCmax; settings: mean of both orientations
T29 chain: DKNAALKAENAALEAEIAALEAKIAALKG

[30] = target: T30, 4H384-AA; assay: two-hybrid library CCmax; settings: mean of both orientations
T30 chain: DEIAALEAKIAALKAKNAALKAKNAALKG

[31] = target: T31, 4H3865-AA; assay: two-hybrid library CCmax; settings: mean of both orientations
T31 chain: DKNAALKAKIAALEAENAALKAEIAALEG

[32] = target: T32, 4H697-AA; assay: two-hybrid library CCmax; settings: mean of both orientations
T32 chain: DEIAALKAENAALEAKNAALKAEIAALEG

[33] = target: T33, 4H982-AA; assay: two-hybrid library CCmax; settings: mean of both orientations
T33 chain: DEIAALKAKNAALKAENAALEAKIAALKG

[34] = target: T34, 4H568-bN; assay: two-hybrid library CCNG1
T34 chain: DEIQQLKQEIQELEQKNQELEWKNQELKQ

[35] = target: T35, 4H607-bN; assay: two-hybrid library CCNG1
T35 chain: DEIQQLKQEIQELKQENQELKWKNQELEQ

[36] = target: T36, APC7099-AA; assay: two-hybrid library CCmax
T36 chain: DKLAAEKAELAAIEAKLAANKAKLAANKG

[37] = target: T37, APC8191-AA; assay: two-hybrid library CCmax; settings: mean of both orientations
T37 chain: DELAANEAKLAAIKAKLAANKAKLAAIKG

[38] = target: T38, APC8910-AA; assay: two-hybrid library CCmax; settings: mean of both orientations
T38 chain: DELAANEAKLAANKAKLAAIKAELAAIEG

[39] = target: T39, APC9096-AA; assay: two-hybrid library CCmax; settings: mean of both orientations
T39 chain: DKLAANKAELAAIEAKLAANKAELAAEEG

[40] = target: T40, APC9319-AA; assay: two-hybrid library CCmax; settings: mean of both orientations
T40 chain: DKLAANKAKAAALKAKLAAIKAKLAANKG

[41] = target: T41, 4H481-AA; assay: two-hybrid library CCmax
T41 chain: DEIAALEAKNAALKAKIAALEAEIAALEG

[42] = target: T42, 4H55-AA; assay: two-hybrid library CCmax
T42 chain: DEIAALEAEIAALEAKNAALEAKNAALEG

[43] = target: T43, 4H662-AA; assay: two-hybrid library CCmax; settings: mean of both orientations
T43 chain: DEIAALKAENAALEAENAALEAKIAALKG

With DKNAALKAEIAALEAEIAALKAENAALEG [4H3595-AA] the interaction score [1] was -0.866, the interaction score [2] was 0.754 and the interaction score [3] was -1.1. It also gave an interaction score [4] of 0.0185, an interaction score [5] of -0.576 and an interaction score [6] of -1.4. For the same binder, the interaction score [7] was -1.59, the interaction score [8] was 1.2 and the interaction score [9] was -1.8. It also gave an interaction score [10] of -0.914.

Work on DEIQQLKQENQELEQKIQELKWKNQELEQ [4H687-bN] yielded an interaction score [11] of -0.549, an interaction score [12] of 0.114 and an interaction score [13] of -1.56. It also gave an interaction score [14] of 0.422, an interaction score [15] of 0.169 and an interaction score [16] of 0.227. For the same binder, the interaction score [17] was -0.555, the interaction score [18] was -0.686 and the interaction score [19] was -1.1. The interaction score [20] was 0.425.

DEIAALEAEIAALEAENAALKAKNAALKG [4H32-AA] was tested, and the interaction score [21] was 0.0438, the interaction score ([22]; mean of both orientations) was -1.84 and the interaction score [23] was 1.89. For the same binder, the interaction score [24] was 0.814, the interaction score [25] was -0.686 and the interaction score [26] was -0.292. For the same binder, the interaction score [27] was -0.675, the interaction score [28] was -0.509 and the interaction score [29] was -0.924. It also gave an interaction score [30] of 1.2, an interaction score [31] of 1.4 and an interaction score [32] of -1.89. For the same binder, the interaction score [33] was -0.329.

With DEIQQLKQENQELKQEIQELKWKIQELEQ [4H717-bN] the interaction score [12] was 1.4, the interaction score [13] was -1.73 and the interaction score [14] was -0.997. For the same binder, the interaction score [15] was -1.95, the interaction score [16] was -0.0445 and the interaction score [17] was -0.377. It also gave an interaction score [18] of -1.09, an interaction score [19] of -1.57 and an interaction score [20] of -0.445.

In the case of DKNAALEAKIAALEAKNAALEAEIAALKG [4H3378-AA], the interaction score [22] is reported as 1.2, the interaction score [23] is reported as -1.86 and the interaction score [24] is reported as -1.24. It also gave an interaction score [25] of -1.31, an interaction score [26] of -0.302 and an interaction score [27] of -1.65. The interaction score [28] was -1.32, the interaction score [29] was -1.79 and the interaction score [30] was -1.9. The interaction score [31] was -0.877, the interaction score [32] was -2.13 and the interaction score [33] was -1.5.

DEIQQLKQEIQELEQKNQELEWKNQELKQ [4H568-bN] gave an interaction score [34] of 0.761, an interaction score [35] of -0.164 and an interaction score [11] of 0.312. For the same binder, the interaction score [12] was -0.157, the interaction score [13] was -0.806 and the interaction score [14] was 0.0731. For the same binder, the interaction score [15] was 0, the interaction score [16] was 1.1 and the interaction score [17] was 1.08. For the same binder, the interaction score [18] was -0.124, the interaction score [19] was -1.93 and the interaction score [20] was -0.452.

For DKLAAEKAELAAIEAKLAANKAKLAANKG [APC7099-AA], the interaction score [36] was -1.86, the interaction score [37] was -1.62 and the interaction score [38] was -2.07. It also gave an interaction score [39] of -1.55 and an interaction score [40] of -2.06.

In the case of DEIAALEAKNAALKAKIAALEAEIAALEG [4H481-AA], the interaction score [41] is reported as 0.282, the interaction score [42] is reported as -1.31 and the interaction score [43] is reported as 1.83.
